Measurements from US20160200782A1.

Key:
Assay in all cases: cell-based or functional assay
PAR-1Bα(h) (human) = PAR-1Bα(h) (human) (UniProt Q7KZI7)
CDK2/cyclinA(h) (human) = CDK2/cyclinA(h) (human) (UniProt P24941)
Ron(h) (human) = Ron(h) (human) (UniProt Q04912)
PKCβI(h) (human) = PKCβI(h) (human) (UniProt P05771)
NEK6(h) (human) = NEK6(h) (human) (UniProt Q9HC98)
GSK3β(h) (human) = GSK3β(h) (human) (UniProt P49841)
ARK5(h) (human) = ARK5(h) (human) (UniProt O60285)
SAPK2b(h) (human) = SAPK2b(h) (human) (UniProt Q15759)
ACK1(h) (human) = ACK1(h) (human) (UniProt Q07912)
ACK1(h) (human), sequence (Q07912 110-476 limits assumed): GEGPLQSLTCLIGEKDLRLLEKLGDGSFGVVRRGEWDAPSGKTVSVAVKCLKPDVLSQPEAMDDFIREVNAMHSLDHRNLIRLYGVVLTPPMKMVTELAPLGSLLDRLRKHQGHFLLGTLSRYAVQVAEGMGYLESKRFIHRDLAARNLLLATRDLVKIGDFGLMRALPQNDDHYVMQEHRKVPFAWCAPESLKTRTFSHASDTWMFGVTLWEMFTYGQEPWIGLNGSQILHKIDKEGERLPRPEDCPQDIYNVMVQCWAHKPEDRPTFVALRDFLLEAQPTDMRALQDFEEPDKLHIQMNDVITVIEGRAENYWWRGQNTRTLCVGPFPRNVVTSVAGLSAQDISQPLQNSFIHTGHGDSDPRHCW

DMPK(h) (human) = DMPK(h) (human) (UniProt Q09013)
PKBγ(h) (human) = PKBγ(h) (human) (UniProt Q9Y243)
NLK(h) (human) = NLK(h) (human) (UniProt Q9UBE8)
NEK11(h) (human) = NEK11(h) (human) (UniProt Q8NG66)
Rsk1(h) (human) = Rsk1(h) (human) (UniProt Q15418)
JNK3(h) (human) = JNK3(h) (human) (UniProt P53779)
Met(M1268T)(h) (human) = Met(M1268T)(h) (human) (UniProt P08581)
BrSK1(h) (human) = BrSK1(h) (human) (UniProt Q8TDC3)
TLK2(h) (human) = TLK2(h) (human) (UniProt Q86UE8)
ALK(h) (human) = ALK(h) (human) (UniProt Q9UM73)
CHK2(R145W)(h) (human) = CHK2(R145W)(h) (human) (UniProt O96017)
SGK(h) (human) = SGK(h) (human) (UniProt O00141)
MRCKβ(h) (human) = MRCKβ(h) (human) (UniProt Q9Y5S2)
PRK2(h) (human) = PRK2(h) (human) (UniProt Q16513)
CLK3(h) (human) = CLK3(h) (human) (UniProt P49761)
SGK2(h) (human) = SGK2(h) (human) (UniProt Q9HBY8)
SGK2(h) (human), sequence (Q9HBY8 whole entry): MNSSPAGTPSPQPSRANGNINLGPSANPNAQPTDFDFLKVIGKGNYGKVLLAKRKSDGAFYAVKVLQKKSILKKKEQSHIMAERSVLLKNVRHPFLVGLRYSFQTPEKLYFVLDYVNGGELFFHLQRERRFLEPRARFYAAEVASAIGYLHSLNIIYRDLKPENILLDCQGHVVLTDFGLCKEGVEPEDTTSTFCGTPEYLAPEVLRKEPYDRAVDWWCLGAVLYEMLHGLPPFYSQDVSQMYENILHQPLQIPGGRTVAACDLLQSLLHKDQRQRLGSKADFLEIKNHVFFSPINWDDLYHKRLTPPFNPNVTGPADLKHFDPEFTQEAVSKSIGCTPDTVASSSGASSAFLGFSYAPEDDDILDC

Ax1(h) (human) = Ax1(h) (human) (UniProt P30530)
Fyn(h) (human) = Fyn(h) (human) (UniProt P06241)
mTOR(h) (human) = mTOR(h) (human) (UniProt P42345)
EphB2(h) (human) = EphB2(h) (human) (UniProt P29323)
PKCβII(h) (human) = PKCβII(h) (human) (UniProt P05771)
PKCβII(h) (human), sequence (P05771 other isoform, or with tags, fused parts or gaps limits assumed): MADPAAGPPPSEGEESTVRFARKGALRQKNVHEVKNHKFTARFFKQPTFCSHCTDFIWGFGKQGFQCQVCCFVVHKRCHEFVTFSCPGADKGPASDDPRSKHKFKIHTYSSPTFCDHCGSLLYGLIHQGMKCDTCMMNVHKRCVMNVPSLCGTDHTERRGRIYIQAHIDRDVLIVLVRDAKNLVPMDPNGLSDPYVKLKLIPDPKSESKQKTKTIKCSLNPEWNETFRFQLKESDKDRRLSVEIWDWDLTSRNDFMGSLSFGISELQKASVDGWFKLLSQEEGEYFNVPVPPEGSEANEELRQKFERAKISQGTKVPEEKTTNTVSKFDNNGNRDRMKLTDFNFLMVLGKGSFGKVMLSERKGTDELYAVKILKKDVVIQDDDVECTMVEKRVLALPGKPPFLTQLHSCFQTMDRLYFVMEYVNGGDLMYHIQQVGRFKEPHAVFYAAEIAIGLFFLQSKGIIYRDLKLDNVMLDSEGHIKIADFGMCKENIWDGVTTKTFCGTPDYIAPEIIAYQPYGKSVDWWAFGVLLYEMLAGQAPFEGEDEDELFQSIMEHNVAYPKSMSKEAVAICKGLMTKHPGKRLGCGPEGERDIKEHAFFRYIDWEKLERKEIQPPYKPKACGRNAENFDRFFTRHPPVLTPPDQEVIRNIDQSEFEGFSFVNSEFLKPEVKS

Fes(h) (human) = Fes(h) (human) (UniProt P07332)
EphA1(h) (human) = EphA1(h) (human) (UniProt P21709)
FGFR2(h) (human) = FGFR2(h) (human) (UniProt P21802)
FGFR2(h) (human), sequence (P21802 456-770 limits assumed): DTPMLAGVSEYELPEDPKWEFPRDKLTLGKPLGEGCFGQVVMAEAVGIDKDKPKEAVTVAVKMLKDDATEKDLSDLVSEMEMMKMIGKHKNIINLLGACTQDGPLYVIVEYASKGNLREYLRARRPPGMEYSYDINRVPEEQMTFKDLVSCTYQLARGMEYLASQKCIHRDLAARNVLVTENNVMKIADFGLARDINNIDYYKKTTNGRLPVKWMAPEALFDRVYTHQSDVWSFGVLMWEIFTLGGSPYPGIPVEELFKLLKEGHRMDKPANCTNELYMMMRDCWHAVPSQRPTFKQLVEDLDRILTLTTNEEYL

ASK1(h) (human) = ASK1(h) (human) (UniProt Q99683)
DAPK1(h) (human) = DAPK1(h) (human) (UniProt P53355)
PKBα(h) (human) = PKBα(h) (human) (UniProt P31749)
SRPK2(h) (human) = SRPK2(h) (human) (UniProt P78362)
RIPK2(h) (human) = RIPK2(h) (human) (UniProt O43353)
[1] = biological target: EGFR(T790M,L858R)(h) (human) (UniProt P00533)
ROCK-I(h) (human) = ROCK-I(h) (human) (UniProt Q13464)
ROCK-I(h) (human), sequence (Q13464 17-535 limits assumed): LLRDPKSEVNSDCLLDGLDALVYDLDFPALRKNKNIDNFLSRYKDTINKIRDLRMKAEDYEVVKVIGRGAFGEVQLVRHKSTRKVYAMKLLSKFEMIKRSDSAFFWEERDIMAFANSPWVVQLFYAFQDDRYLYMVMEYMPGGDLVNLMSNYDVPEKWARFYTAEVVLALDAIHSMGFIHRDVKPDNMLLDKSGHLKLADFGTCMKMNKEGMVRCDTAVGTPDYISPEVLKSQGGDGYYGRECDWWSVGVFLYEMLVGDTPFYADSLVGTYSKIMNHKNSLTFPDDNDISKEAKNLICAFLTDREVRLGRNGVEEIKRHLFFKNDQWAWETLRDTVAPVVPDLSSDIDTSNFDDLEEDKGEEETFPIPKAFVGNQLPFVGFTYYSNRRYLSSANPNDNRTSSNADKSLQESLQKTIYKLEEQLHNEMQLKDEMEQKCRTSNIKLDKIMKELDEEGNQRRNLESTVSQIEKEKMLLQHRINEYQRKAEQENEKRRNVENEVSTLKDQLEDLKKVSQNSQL

SIK(h) (human) = SIK(h) (human) (UniProt P57059)
DCAMKL2(h) (human) = DCAMKL2(h) (human) (UniProt Q8N568)
DCAMKL2(h) (human), sequence (Q8N568 372-766 limits assumed): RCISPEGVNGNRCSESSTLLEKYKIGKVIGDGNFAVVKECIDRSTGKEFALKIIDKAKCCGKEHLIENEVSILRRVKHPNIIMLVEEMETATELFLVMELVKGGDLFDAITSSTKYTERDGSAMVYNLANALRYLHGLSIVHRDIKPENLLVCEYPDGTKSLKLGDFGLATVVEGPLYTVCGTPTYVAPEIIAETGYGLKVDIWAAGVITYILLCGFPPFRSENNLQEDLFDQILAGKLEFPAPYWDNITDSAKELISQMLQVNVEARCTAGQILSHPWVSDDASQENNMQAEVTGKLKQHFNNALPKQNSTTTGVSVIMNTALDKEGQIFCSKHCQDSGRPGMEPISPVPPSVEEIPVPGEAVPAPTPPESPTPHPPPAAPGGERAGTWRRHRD

PKD2(h) (human) = PKD2(h) (human) (UniProt Q9BZL6)
PKD2(h) (human), sequence (Q9BZL6 whole entry): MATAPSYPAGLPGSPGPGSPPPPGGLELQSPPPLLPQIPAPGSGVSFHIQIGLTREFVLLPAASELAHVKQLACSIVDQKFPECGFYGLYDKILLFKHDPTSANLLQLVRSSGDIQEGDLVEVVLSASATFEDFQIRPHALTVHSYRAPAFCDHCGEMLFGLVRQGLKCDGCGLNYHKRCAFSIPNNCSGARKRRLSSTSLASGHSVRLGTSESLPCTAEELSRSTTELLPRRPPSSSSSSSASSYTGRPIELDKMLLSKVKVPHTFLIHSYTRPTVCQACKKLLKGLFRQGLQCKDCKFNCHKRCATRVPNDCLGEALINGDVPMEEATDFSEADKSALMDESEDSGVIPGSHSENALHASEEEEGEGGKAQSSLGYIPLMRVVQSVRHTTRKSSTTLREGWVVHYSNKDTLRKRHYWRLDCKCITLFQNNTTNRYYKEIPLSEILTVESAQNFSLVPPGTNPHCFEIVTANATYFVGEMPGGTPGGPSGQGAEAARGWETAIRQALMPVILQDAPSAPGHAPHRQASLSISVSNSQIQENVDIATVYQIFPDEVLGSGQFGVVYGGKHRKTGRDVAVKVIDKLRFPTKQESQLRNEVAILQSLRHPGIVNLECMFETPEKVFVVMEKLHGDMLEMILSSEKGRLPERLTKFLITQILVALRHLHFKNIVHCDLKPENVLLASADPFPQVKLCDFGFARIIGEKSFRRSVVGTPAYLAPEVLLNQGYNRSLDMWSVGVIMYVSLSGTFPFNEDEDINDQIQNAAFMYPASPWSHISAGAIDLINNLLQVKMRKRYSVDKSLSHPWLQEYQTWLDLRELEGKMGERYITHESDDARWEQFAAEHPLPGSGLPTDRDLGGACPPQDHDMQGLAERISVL

Src(1-530)(h) (human) = Src(1-530)(h) (human) (UniProt P12931)
BRK(h) (human) = BRK(h) (human) (UniProt Q13882)
VRK2(h) (human) = VRK2(h) (human) (UniProt Q86Y07)
BrSK2(h) (human) = BrSK2(h) (human) (UniProt Q8IWQ3)
CHK2(I157T)(h) (human) = CHK2(I157T)(h) (human) (UniProt O96017)
PKA(h) (human) = biological target: PKA(h) (human)
Arg(h) (human) = Arg(h) (human) (UniProt P42684)
GRK7(h) (human) = GRK7(h) (human) (UniProt Q8WTQ7)
Tec(h)activated (human) = Tec(h)activated (human) (UniProt P42680)
Tec(h)activated (human), sequence (P42680 whole entry): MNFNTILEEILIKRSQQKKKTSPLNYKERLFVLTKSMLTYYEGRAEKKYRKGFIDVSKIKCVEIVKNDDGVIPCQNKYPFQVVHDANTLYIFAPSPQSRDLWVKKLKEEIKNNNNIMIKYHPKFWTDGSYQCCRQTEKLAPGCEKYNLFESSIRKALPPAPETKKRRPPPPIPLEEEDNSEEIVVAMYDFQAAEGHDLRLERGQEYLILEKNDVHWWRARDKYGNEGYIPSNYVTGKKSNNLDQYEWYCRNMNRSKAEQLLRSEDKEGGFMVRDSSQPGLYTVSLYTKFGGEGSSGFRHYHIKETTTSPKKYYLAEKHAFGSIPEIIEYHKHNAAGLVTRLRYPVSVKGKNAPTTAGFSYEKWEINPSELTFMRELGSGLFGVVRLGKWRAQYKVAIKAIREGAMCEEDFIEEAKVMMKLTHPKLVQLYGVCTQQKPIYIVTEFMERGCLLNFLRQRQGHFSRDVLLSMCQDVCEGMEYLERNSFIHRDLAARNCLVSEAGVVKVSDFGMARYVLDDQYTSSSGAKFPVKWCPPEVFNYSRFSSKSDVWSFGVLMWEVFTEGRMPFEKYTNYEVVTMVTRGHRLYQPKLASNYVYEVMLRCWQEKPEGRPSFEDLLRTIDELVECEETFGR

Pyk2(h) (human) = Pyk2(h) (human) (UniProt Q14289)
PrKX(h) (human) = PrKX(h) (human) (UniProt P51817)
cKit(V560G)(h) (human) = cKit(V560G)(h) (human) (UniProt P10721)
HIPK2(h) (human) = HIPK2(h) (human) (UniProt Q9H2X6)
Met(h) (human) = Met(h) (human) (UniProt P08581)

PKCβI(h) (human), sequence (P05771 whole entry): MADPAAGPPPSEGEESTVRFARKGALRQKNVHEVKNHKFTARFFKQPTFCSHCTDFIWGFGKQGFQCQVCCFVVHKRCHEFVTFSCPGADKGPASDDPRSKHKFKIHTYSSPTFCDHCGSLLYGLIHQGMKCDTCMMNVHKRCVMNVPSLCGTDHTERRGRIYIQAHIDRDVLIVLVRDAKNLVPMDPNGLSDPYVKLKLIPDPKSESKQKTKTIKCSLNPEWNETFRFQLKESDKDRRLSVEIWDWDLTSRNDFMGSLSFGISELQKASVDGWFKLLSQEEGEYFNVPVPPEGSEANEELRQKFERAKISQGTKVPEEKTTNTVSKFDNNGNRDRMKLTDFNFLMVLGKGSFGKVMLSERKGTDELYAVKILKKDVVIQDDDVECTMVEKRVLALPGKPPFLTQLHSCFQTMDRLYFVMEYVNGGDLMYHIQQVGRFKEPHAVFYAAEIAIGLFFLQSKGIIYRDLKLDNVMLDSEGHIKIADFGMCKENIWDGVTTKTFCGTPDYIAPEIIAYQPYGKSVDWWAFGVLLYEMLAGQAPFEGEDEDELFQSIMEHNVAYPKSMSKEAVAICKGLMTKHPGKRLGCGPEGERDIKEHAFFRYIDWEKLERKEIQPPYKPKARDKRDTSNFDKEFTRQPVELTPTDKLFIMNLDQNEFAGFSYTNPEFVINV

With MMI-0200 (peptide) as the substance, how does the % activity (PAR-1Bα(h) (human)) read?
The % activity was 110%.

What about the % activity (CDK2/cyclinA(h) (human)) of the same substance?
The % activity was 114%.

And the % activity (Ron(h) (human))?
The % activity was 120%.

What about the % activity (PKCβI(h) (human)) of the same substance?
The % activity was 98%.

What about the % activity (NEK6(h) (human)) of the same substance?
The % activity was 98%.

What about the % activity (GSK3β(h) (human)) of the same substance?
Its % activity is 132%.

What about the % activity (ARK5(h) (human)) of the same substance?
The % activity was 93%.

And the % activity (SAPK2b(h) (human))?
Its % activity is 95%.

And the % activity (ACK1(h) (human))?
The % activity was 97%.

What about the % activity (DMPK(h) (human)) of the same substance?
Its % activity is 66%.

And the % activity (PKBγ(h) (human))?
Its % activity is 103%.

What about the % activity (NLK(h) (human)) of the same substance?
Its % activity is 106%.

What about the % activity (NEK11(h) (human)) of the same substance?
Its % activity is 95%.

What about the % activity (Rsk1(h) (human)) of the same substance?
Its % activity is 102%.

And the % activity (JNK3(h) (human))?
Its % activity is 90%.

And the % activity (Met(M1268T)(h) (human))?
The % activity was 143%.

What about the % activity (BrSK1(h) (human)) of the same substance?
The % activity was 93%.

And the % activity (TLK2(h) (human))?
Its % activity is 129%.

What about the % activity (ALK(h) (human)) of the same substance?
The % activity was 95%.

What about the % activity (CHK2(R145W)(h) (human)) of the same substance?
The % activity was 81%.

What about the % activity (SGK(h) (human)) of the same substance?
Its % activity is 115%.

And the % activity (MRCKβ(h) (human))?
Its % activity is 102%.

What about the % activity (PRK2(h) (human)) of the same substance?
Its % activity is 74%.

What about the % activity (CLK3(h) (human)) of the same substance?
The % activity was 76%.

And the % activity (SGK2(h) (human))?
The % activity was 119%.

And the % activity (Ax1(h) (human))?
Its % activity is 99%.

And the % activity (Fyn(h) (human))?
Its % activity is 75%.

And the % activity (mTOR(h) (human))?
The % activity was 110%.

And the % activity (EphB2(h) (human))?
Its % activity is 128%.

What about the % activity (PKCβII(h) (human)) of the same substance?
Its % activity is 100%.

What about the % activity (Fes(h) (human)) of the same substance?
The % activity was 74%.

And the % activity (EphA1(h) (human))?
Its % activity is 136%.

And the % activity (FGFR2(h) (human))?
The % activity was 73%.

And the % activity (ASK1(h) (human))?
Its % activity is 101%.

What about the % activity (DAPK1(h) (human)) of the same substance?
The % activity was 113%.

What about the % activity (PKBα(h) (human)) of the same substance?
The % activity was 110%.

What about the % activity (SRPK2(h) (human)) of the same substance?
Its % activity is 100%.

And the % activity (RIPK2(h) (human))?
Its % activity is 98%.

What about the % activity [1] of the same substance?
Its % activity is 108%.

What about the % activity (ROCK-I(h) (human)) of the same substance?
Its % activity is 117%.

What about the % activity (SIK(h) (human)) of the same substance?
Its % activity is 102%.

What about the % activity (DCAMKL2(h) (human)) of the same substance?
The % activity was 131%.

What about the % activity (PKD2(h) (human)) of the same substance?
The % activity was 78%.

And the % activity (Src(1-530)(h) (human))?
The % activity was 75%.

And the % activity (BRK(h) (human))?
Its % activity is 127%.

And the % activity (VRK2(h) (human))?
The % activity was 109%.

And the % activity (BrSK2(h) (human))?
The % activity was 102%.

And the % activity (CHK2(I157T)(h) (human))?
Its % activity is 85%.

And the % activity (PKA(h) (human))?
The % activity was 110%.

And the % activity (Arg(h) (human))?
Its % activity is 82%.

What about the % activity (GRK7(h) (human)) of the same substance?
The % activity was 124%.

What about the % activity (Tec(h)activated (human)) of the same substance?
Its % activity is 77%.

And the % activity (Pyk2(h) (human))?
Its % activity is 127%.

And the % activity (PrKX(h) (human))?
Its % activity is 112%.

And the % activity (cKit(V560G)(h) (human))?
The % activity was 115%.

What about the % activity (HIPK2(h) (human)) of the same substance?
Its % activity is 102%.

And the % activity (Met(h) (human))?
The % activity was 71%.
